From patent US20190382475

Experiments:
Experiment in all cases: LC-UV-ESI-MS of purified Fab after co-expression of two heavy and two light chains in HEK293T (chain competition); competing chains not named
[1] = biological target: anti c-Kit Fab heavy chain Q39K/K147D/S165R
[2] = biological target: anti c-Kit Fab heavy chain Q39K/K147D/S165
[3] = biological target: anti c-Kit Fab heavy chain Q39K/K147/S165R
[4] = biological target: anti c-Kit Fab heavy chain Q39/K147D/S165R
[5] = biological target: anti c-Kit Fab heavy chain Q39K/K147/S165
[6] = biological target: anti c-Kit Fab heavy chain Q39/K147D/S165
[7] = biological target: anti c-Kit Fab heavy chain Q39/K147/S165R
[8] = biological target: anti c-Kit Fab heavy chain Q39D/K147/S165
[9] = biological target: anti c-Kit Fab heavy chain Q39D/K147/S165D
[10] = biological target: anti c-Kit Fab heavy chain Q39/K147/S165 (wild type)
[11] = biological target: anti c-Kit Fab heavy chain Q39/K147/S165D

B1: anti c-Kit Fab light chain Q38D/Q124K/K169D (protein)
chain: DIQMTQSPSSLSASVGDRVTITCRASQSISSYLNWYQDKPGKAPKLLIYYTSRLQSGVPSRFSGSGSGTDFTLTISSLQPEDFATYYCQQGRRLWSFGGGTKVEIKRTVAAPSVFIFPPSDEKLKSGTASVVCLLNNFYPREAKVQWKVDNALQSGNSQESVTEQDSDDSTYSLSSTLTLSKADYEKHKVYACEVTHQGLSSPVTKSFNRGEC
[1]
  Correct pairing (%): 100%

B2: anti c-Kit Fab light chain Q38D/Q124K/K169 (protein)
chain: DIQMTQSPSSLSASVGDRVTITCRASQSISSYLNWYQDKPGKAPKLLIYYTSRLQSGVPSRFSGSGSGTDFTLTISSLQPEDFATYYCQQGRRLWSFGGGTKVEIKRTVAAPSVFIFPPSDEKLKSGTASVVCLLNNFYPREAKVQWKVDNALQSGNSQESVTEQDSKDSTYSLSSTLTLSKADYEKHKVYACEVTHQGLSSPVTKSFNRGEC
[2]
  Correct pairing (%): 95%

B3: anti c-Kit Fab light chain Q38D/Q124/K169D (protein)
chain: DIQMTQSPSSLSASVGDRVTITCRASQSISSYLNWYQDKPGKAPKLLIYYTSRLQSGVPSRFSGSGSGTDFTLTISSLQPEDFATYYCQQGRRLWSFGGGTKVEIKRTVAAPSVFIFPPSDEQLKSGTASVVCLLNNFYPREAKVQWKVDNALQSGNSQESVTEQDSDDSTYSLSSTLTLSKADYEKHKVYACEVTHQGLSSPVTKSFNRGEC
[3]
  Correct pairing (%): 75%

B4: anti c-Kit Fab light chain Q38/Q124K/K169D (protein)
chain: DIQMTQSPSSLSASVGDRVTITCRASQSISSYLNWYQQKPGKAPKLLIYYTSRLQSGVPSRFSGSGSGTDFTLTISSLQPEDFATYYCQQGRRLWSFGGGTKVEIKRTVAAPSVFIFPPSDEKLKSGTASVVCLLNNFYPREAKVQWKVDNALQSGNSQESVTEQDSDDSTYSLSSTLTLSKADYEKHKVYACEVTHQGLSSPVTKSFNRGEC
[4]
  Correct pairing (%): 90%

B5: anti c-Kit Fab light chain Q38D/Q124/K169 (protein)
chain: DIQMTQSPSSLSASVGDRVTITCRASQSISSYLNWYQDKPGKAPKLLIYYTSRLQSGVPSRFSGSGSGTDFTLTISSLQPEDFATYYCQQGRRLWSFGGGTKVEIKRTVAAPSVFIFPPSDEQLKSGTASVVCLLNNFYPREAKVQWKVDNALQSGNSQESVTEQDSKDSTYSLSSTLTLSKADYEKHKVYACEVTHQGLSSPVTKSFNRGEC
[5]
  Correct pairing (%): 74%

B6: anti c-Kit Fab light chain Q38/Q124K/K169 (protein)
chain: DIQMTQSPSSLSASVGDRVTITCRASQSISSYLNWYQQKPGKAPKLLIYYTSRLQSGVPSRFSGSGSGTDFTLTISSLQPEDFATYYCQQGRRLWSFGGGTKVEIKRTVAAPSVFIFPPSDEKLKSGTASVVCLLNNFYPREAKVQWKVDNALQSGNSQESVTEQDSKDSTYSLSSTLTLSKADYEKHKVYACEVTHQGLSSPVTKSFNRGEC
[6]
  Correct pairing (%): 91%

B7: anti c-Kit Fab light chain Q38/Q124/K169D (protein)
chain: DIQMTQSPSSLSASVGDRVTITCRASQSISSYLNWYQQKPGKAPKLLIYYTSRLQSGVPSRFSGSGSGTDFTLTISSLQPEDFATYYCQQGRRLWSFGGGTKVEIKRTVAAPSVFIFPPSDEQLKSGTASVVCLLNNFYPREAKVQWKVDNALQSGNSQESVTEQDSDDSTYSLSSTLTLSKADYEKHKVYACEVTHQGLSSPVTKSFNRGEC
[7]
  Correct pairing (%): 68%

B8: anti c-Kit Fab light chain Q38K/Q124D/K169 (protein)
chain: DIQMTQSPSSLSASVGDRVTITCRASQSISSYLNWYQKKPGKAPKLLIYYTSRLQSGVPSRFSGSGSGTDFTLTISSLQPEDFATYYCQQGRRLWSFGGGTKVEIKRTVAAPSVFIFPPSDEDLKSGTASVVCLLNNFYPREAKVQWKVDNALQSGNSQESVTEQDSKDSTYSLSSTLTLSKADYEKHKVYACEVTHQGLSSPVTKSFNRGEC
[8]
  Correct pairing (%): 93%
[9]
  Correct pairing (%): 100%

B9: anti c-Kit Fab light chain Q38K/Q124/K169 (protein)
chain: DIQMTQSPSSLSASVGDRVTITCRASQSISSYLNWYQKKPGKAPKLLIYYTSRLQSGVPSRFSGSGSGTDFTLTISSLQPEDFATYYCQQGRRLWSFGGGTKVEIKRTVAAPSVFIFPPSDEQLKSGTASVVCLLNNFYPREAKVQWKVDNALQSGNSQESVTEQDSKDSTYSLSSTLTLSKADYEKHKVYACEVTHQGLSSPVTKSFNRGEC
[8]
  Correct pairing (%): 95%
[9]
  Correct pairing (%): 95%

B10: anti c-Kit Fab light chain Q38/Q124D/K169 (protein)
chain: DIQMTQSPSSLSASVGDRVTITCRASQSISSYLNWYQQKPGKAPKLLIYYTSRLQSGVPSRFSGSGSGTDFTLTISSLQPEDFATYYCQQGRRLWSFGGGTKVEIKRTVAAPSVFIFPPSDEDLKSGTASVVCLLNNFYPREAKVQWKVDNALQSGNSQESVTEQDSKDSTYSLSSTLTLSKADYEKHKVYACEVTHQGLSSPVTKSFNRGEC
[10]
  Correct pairing (%): 91%
[11]
  Correct pairing (%): 88%

B11: anti c-Kit Fab light chain Q38/Q124/K169 (wild type) (protein)
chain: DIQMTQSPSSLSASVGDRVTITCRASQSISSYLNWYQQKPGKAPKLLIYYTSRLQSGVPSRFSGSGSGTDFTLTISSLQPEDFATYYCQQGRRLWSFGGGTKVEIKRTVAAPSVFIFPPSDEQLKSGTASVVCLLNNFYPREAKVQWKVDNALQSGNSQESVTEQDSKDSTYSLSSTLTLSKADYEKHKVYACEVTHQGLSSPVTKSFNRGEC
[10]
  Correct pairing (%): 63%
[11]
  Correct pairing (%): 87%
